Data on five molecules can be found in patent US20250019454A1 (BIOCYTOGEN PHARMACEUTICALS BEIJING, published 2025).

Where a chain is given by its changes, count along the chain named.

Experiment [1] has as its target T1, human TNFR2 (expressed on cells) (human, UniProt P20333 23-461).
T1 construct: also called hTNFR2; human TNF Receptor 2
T1 sequence: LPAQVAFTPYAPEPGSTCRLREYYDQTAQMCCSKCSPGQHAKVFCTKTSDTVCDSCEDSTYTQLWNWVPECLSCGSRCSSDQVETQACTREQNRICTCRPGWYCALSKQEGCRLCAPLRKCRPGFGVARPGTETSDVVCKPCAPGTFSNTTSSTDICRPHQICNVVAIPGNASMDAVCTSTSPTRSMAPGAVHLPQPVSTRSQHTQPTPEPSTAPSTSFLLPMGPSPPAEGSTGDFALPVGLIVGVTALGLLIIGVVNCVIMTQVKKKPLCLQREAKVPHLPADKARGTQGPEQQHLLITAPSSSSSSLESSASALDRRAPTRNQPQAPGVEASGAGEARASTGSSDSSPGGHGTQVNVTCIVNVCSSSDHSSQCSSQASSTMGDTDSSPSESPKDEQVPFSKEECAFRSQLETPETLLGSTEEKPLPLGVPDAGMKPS
Put plainly: flow cytometry competition, CHO cells with human TNFR2, antibody 2.5 µg/mL, Biotin-hTNFα 0.5 µg/mL. The protocol:
(§1) 30 μl of Biotin-hTNFα (Acro Biosystems, Cat #: TNA-H82E1) was added to each well (with a final concentration of 0.5 μg/mL in each well). The cells with Biotin-hTNFα and the antibodies were incubated at 4° C. for 30 minutes.
(§2) The signals for AF647 and PE were determined by flow cytometry (Thermo Attune NX).

Experiment [2] deals with T1, human TNFR2 (expressed on cells). Put plainly: flow cytometry competition, CHO cells with human TNFR2, antibody 10 µg/mL, Biotin-hTNFα 0.5 µg/mL. Here is the method: as §1, §2
A general note: A flow cytometer gives signals particle by particle.

In experiment [3] the target is T2, dog (Canine) TNFR2 (on transfected CHO cells) (dog).
T2 construct: also called dTNFR2
T2 chain: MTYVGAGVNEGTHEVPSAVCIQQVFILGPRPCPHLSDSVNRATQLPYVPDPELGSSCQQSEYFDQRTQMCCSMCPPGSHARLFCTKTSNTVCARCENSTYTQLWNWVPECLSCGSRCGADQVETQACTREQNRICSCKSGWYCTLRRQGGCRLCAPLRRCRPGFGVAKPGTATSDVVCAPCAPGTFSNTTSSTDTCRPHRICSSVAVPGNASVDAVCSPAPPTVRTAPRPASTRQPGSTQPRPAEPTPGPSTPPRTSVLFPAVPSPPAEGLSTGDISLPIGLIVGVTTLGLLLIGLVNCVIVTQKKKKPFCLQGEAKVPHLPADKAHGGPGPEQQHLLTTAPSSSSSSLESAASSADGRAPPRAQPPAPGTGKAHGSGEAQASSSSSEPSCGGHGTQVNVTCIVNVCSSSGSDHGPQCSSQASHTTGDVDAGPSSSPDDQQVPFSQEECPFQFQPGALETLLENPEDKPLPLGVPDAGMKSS
Put plainly: flow cytometry on transfected CHO cells. Here is the method:
(§3) 30 μl CHO cells (1×10⁵ cells) were added to each well. 30 μl purified anti-TNFR2 antibodies (10 μg/mL) (as listed in Table 4) were added to each well and were incubated at 4° C. for 30 minutes.
(§4) After two washes with PBS (1600 rmp, 6 min), 50 μl of Alexa Fluor labeled anti-human IgG Fc antibody […] was added into each well 1:500 dilution, incubated at 4° C. for 15 minutes, followed by a PBS wash (1200 rmp, 5 min). The signals for AF647 were detected by flow cytometry.

Experiment [4] addresses T3, mouse TNFR2 (on transfected CHO cells) (mouse, UniProt P25119 23-474).
T3 construct: also called mTNFR2
T3 sequence: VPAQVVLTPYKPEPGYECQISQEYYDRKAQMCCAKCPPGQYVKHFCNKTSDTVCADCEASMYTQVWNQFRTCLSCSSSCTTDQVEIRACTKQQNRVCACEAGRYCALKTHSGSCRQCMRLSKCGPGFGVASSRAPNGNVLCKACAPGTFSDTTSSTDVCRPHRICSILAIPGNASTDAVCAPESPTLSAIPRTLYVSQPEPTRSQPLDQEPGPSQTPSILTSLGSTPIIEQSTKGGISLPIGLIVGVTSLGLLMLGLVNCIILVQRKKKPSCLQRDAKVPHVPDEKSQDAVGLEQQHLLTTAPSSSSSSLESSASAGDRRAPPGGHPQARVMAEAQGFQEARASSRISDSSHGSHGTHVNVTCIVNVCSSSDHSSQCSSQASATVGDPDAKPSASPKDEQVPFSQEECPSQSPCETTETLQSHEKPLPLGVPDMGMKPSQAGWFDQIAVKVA
Put plainly: flow cytometry on transfected CHO cells. The protocol:
as §3, §4

Experiment [5] addresses T4, ΔCRD2-TNFR2 protein (with CRD2 deletion), on CHO-S cells (human, UniProt P20333 23-461).
T4 construct: also called CHO-SΔCRD2-TNFR2
T4 sequence: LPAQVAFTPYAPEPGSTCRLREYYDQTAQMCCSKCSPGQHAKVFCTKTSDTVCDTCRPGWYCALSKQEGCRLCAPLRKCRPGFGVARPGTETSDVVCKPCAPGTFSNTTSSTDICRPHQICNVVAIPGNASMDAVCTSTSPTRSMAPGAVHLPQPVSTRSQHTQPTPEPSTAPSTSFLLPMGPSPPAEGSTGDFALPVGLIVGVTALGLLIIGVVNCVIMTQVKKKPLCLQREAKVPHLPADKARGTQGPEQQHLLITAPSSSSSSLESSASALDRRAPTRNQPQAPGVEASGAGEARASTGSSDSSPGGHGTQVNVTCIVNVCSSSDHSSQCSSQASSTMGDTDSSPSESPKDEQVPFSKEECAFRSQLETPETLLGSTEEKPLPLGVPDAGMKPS
Put plainly: FACS on CHO-S cells with ΔCRD2-TNFR2, AF647 anti-human IgG Fc secondary. An excerpt:
TNFR2 has four cysteine rich domains (CRD). In another experiment, FACS was used to detect the binding of anti-hTNFR2 antibodies to TNFR2 proteins with different structural domains. Secondary antibody (Alexa Fluor® 647 AffiniPure F(ab′) 2 Fragment Goat Anti-Human IgG, Fcγ fragment specific, Jackson ImmunoResearch Laboratories, Inc., Cat #: 151524) was used. The fluorescence-labeled secondary antibody can attach to the Fc region of the anti-hTNFR2 antibodies so that the anti-hTNFR2 antibodies that are bound to the ΔCRD cells can be detected by FACS. Specifically, ΔCRD1-TNFR2 protein (with CRD1 deleteion), ΔCRD2-TNFR2 protein (with CRD2 deleteion), ΔCRD3-TNFR2 protein (with CRD3 deleteion) or ΔCRD4-TNFR2 protein (with CRD4 deleteion) were expressed in CHO-S cells respectively, and then the binding between the cells and different anti-hTNFR2 antibodies was detected.

B1: BC-1C3-IgG1 (antibody, V domains shown)
VH: QVQLVESGGGVVHPGKSLRLSCAASGFTFNIYGMHWVRQAPGKGLEWVALISYDGNDKYFADSVKGRFTISRDNSKNTLYLQMNSLRAEDTAVYYCAKAVDTAVVTFFDYWGQGTLVTVSS
VL: EIVMTQSPVTLSVSPGERATLSCRASQSVSSNLAWYQQKPGQAPRLLIYSASTRATGIPARFSGSGSGTEFTLTISSLQSEDLAVYYCQQYSNWPFTFGPGTKVDIK
notes: Human VH/VL joined to the human IgG1 subtype
Turning to B1, the “percentage of tested cells that had Streptavidin signals” value (from here on “percentage”) in experiment [1] stood at 81.5%; in experiment [2], 71.1%. For the same molecule, the binding result in experiment [3] and in experiment [4] was “no binding (tested: 10 µg/mL)” in each case. Further, the “positive rate of binding (% of cells)” value in experiment [5] was determined as 80.3%.

B2: BC-1A8-IgG1 (antibody, V domains shown)
VH: QVQLQQSGPGLVKPSQTLSLTCAISGDSVSSNSAAWNWIRQSPSRGLEWLGRTYYRSKWYNDYALSVKSRITINPETSKNQFSLQLNSVTPEDTAVYYCAREDGVGGTKDYFDYWGQGTLVTVSS
VL: DIQMTQSPSSLSASVGDRVTITCQASQDIDNYLNWYQQKPGKAPKLLIYDVSNLEIGVPSRFSGSGSGTDFTFTISSLQPEDIATYYCQQYDNLPLTFGQGTRLEIK
notes: Fully human VH/VL joined to the human IgG1 subtype, kappa light chain (RenMab mice)
In the case of B2, the “percentage” value was 29.9% in experiment [1] and 12% in experiment [2]. Also, the binding result in experiment [3] and in experiment [4] was “no binding (tested: 10 µg/mL)” throughout. In experiment [5], the “positive rate of binding (% of cells)” value was found to be 71.2%.

B3: BC-1F4-IgG1 (antibody, V domains shown)
VH: B2 VH with N32D, A34S, A64T, L65V, E76D
VL: B2 VL with D30S, V51A, I56T, S76N, I83F, Y87F, L96I
notes: as for B1
Take B3: the “percentage” value in experiment [1] is 59.5%; in experiment [2], 18.5%. For the same molecule, the binding result in experiment [3] and in experiment [4] was “no binding (tested: 10 µg/mL)” each time. In addition, the “positive rate of binding (% of cells)” value in experiment [5] turned out to be 59.1%.

B4: BC-1B6-IgG1 (antibody, V domains shown)
VH: QVQLVESGGGVVQPGRSLRLSCAASGFTFSNFGMHWVRQAPGKGLEWVAVIWYEGSDKYYADSVKGRFTISRDNSKNTLYLQMNSLRAEDTAVYYCARDSSWGFLLYGMDVWGQGTTVTVSS
VL: DVVMTQSPLSLPVTLGQPASISCRSSRSLEYSDGNTYLNWFQQRPGQSPRRLIYKVSNRDSGVPDRFSGSGSGTAFTLKISGVEAEDVGVYYCMQGTHWPPTFGGGTKVEIK
notes: as for B1
Consider B4, for which the “percentage” value in experiment [1] is 87.2%; in experiment [2], 75.1%. Moreover, the binding result in experiment [3] and in experiment [4] was “no binding (tested: 10 µg/mL)” each time.

B5: BC-1F10-IgG1 (antibody, V domains shown)
VH: QVQLQQWGAGLLKPSETLSLICAVYDGSFSGDYWSWIRQPPGKGLEWIGEINHSGSTNYNPSLKSRVTISVDTSKNQFSLKLSSVTAADTAVYYCARGHWNYDYYYGMDVWGQGTTVTVSS
VL: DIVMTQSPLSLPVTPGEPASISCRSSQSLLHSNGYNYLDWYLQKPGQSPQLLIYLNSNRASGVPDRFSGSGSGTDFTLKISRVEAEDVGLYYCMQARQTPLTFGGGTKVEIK
notes: as for B1
As to B5, the “percentage” value stood at 54.5% in experiment [1] and 51.9% in experiment [2]. In addition, the binding result in experiment [3] and in experiment [4] was “no binding (tested: 10 µg/mL)” throughout. Also, the “positive rate of binding (% of cells)” value in experiment [5] was determined as 65.7%.
